Source: article PMC8866119 (Nature, 2021)
Residue numbers refer to the chain shown, from its start.

B1: BD55-3637 (antibody, V domains shown)
VH: QVQLVESGGGVVQPGRSLRLSCAASGFTFSTYGMHWVRQAPGKGLQWVAFISDGGNKKYFADSVKGRFTISRDNSKNTLYLQMSSLRTEDTAVYYCAKERYCAGGDCSNPFFDYWGQGTLVTVSS
VL: DIQVTQSPSSLSASVGDRVTITCRASQSISSSLNWYQHKPGNAPKLLIYAASSLQSGVPSRFSGSGSGTDFILTISSLQPEDFATYYCQQSHSFPRTFGQGTKVEFR
B2: BD55-3152 (antibody, V domains shown)
VH: QVQLVQSGAEVKKPGASVIVSCKASGYRFISHYIHWVRQAPGQGLEWMGKIDPSGRGTTYAQKLQGRVSVTRDTSTSSVYMALSGLRSDDTAVYYCARDRFPLSDPYVWGSPLGGLDVWGQGTTVIVSS
VL: SYDLTQPPSVSVSPGQTARITCSGDALPSQYVYWYQQRPGQAPVLVMYKDSERPPGIPERFSGSTSGTTATLTITGVQAEDEADYYCQSADASTTYHVFGGGTKVTVV
B3: C576 (antibody, V domains shown)
VH: QVQLVQSGAEVKKPGSSVKVSCKASGGTFSIYAISWVRQAPGQGLEWMGGIIPILGTANYAQKFQGRVTITADESTSTAYMELSSLRSEDTAVYYCASFHVAYGDYIPFDYWGQGTLVTVSS
VL: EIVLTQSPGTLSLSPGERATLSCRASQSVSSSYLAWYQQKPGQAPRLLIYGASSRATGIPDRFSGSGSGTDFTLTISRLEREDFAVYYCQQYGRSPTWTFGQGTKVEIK
B4: BD55-5386 (antibody, V domains shown)
VH: QVQLLQSGAEVKKPGSSVTVSCKASGGTFTNSAINWVRQAPGQGLEWIGGIIPIIGPTSYAQKFQGRVTITADESSTTAYLDLRSLRSDDTAVYYCAKAHCGDCTPPRGYYFYYFGMDVWGQGTTVTVSS
VL: SYELTQPPSVSVSPGQTARITCSGDALPKQYSYWYQQRPGQAPVLLIYKDNERPSGIPERFSGSSSGTTVTLTISGVQAEDEADYYCQSADASSTYVVFGGGTKLTVL
B5: BD-815 (antibody, V domains shown)
VH: EVQLVQSGPEVKKPGESLKISCKASGYSFISNWIGWVRQMPGKGLEWMGIIYPGDSDTRYSPSFQGQVTISADRSITTAYLQWSSLKASDTAIYYCARLGSSWYWVDYWGQGTLVTVSS
VL: SSELTQDPAVSVALGQTVRITCQGDSLRSYHASWYQQKPGQAPILVIYDKNNRPSGIPDRFSGSGSGNTASLTITGAQAEDEADYYCNSRDSSGDHLVFGTGTKVTVL
B6: COV2-2389 (antibody, V domains shown)
VH: EVQLVESGGGLVQPGRSLRLSCAASGFTFDDYAMHWVRQAPGKGLEWVSGISWNSGTIGYADSVKGRFIISRDNAKNSLYLQMNSLRPEDTALYYCAKDIIRQGEDGMDVWGQGTTVTVSS
VL: DIQMTQSPSSLSASVGDRVTITCRASQNIASYLNWYQQKPGKAPKLLIYAASSLQSGVPSRFSGSGSGTDFTLTISSLQPEEFATYYCQQSYSTPWTFGQGTKVEIK
B7: BD55-3525 (antibody, V domains shown)
VH: EVQVVESGGGLVKPGGSLRLSCAGSGFTFNYAWMNWVRQAPGKGLEWVGRIKSETGGGTTDYAAPVRGRFTISRDDSKDTVFLQMNSLKTEDTAVYYCTTEATVTSWDAFDVWGQGTLVTVST
VL: QSVLTQPPSASGTSGQRVTISCSGSSSNIGSNTVNWYQQIPRRAPKLLIYRNNQRPSGVPDRFSASKSGTSASLAISGLHSEDEADYYCAAWDDRLNGFVFGTGTKVTVL
B8: BD-713 (antibody, V domains shown)
VH: EVQLVESGGGLVQPGRSLRLSCAASGFTFDDYAMHWVRQAPGKGLEWVSGMSWNSGTIGYADSVKGRFTIIRDNAKNSLYLQMIRLRAEDTALYYCAKASPRLDTAMAPFDYWGQGTLVTVSS
VL: SYVLTQPPSVSVAPGKTARITCGGNNIGSKSVHWYQQKPGQAPALVIYYDNDRPSGLPERFSGSNSGNTATLTISRVEAGDEADYYCQVWHSSSDSLVFGGGTKLTVL
B9: DH1193 (antibody, V domains shown)
VH: QVQLVESGGGVVQPGRSLRLSCAASGFTFSNYGMHWVRQAPGKGLEWVTVISYDGSNKYYADSVKGRFTISRDNSKNTLYLQMNSLRAEDTAVYYCAKVLTWSIHPEDYYYGMDVWGQGTTVTVSS
VL: QSALTQPPSASGSPGQSVTISCTGTSSDVGGYNYVSWYQQHPGKAPKLMIYEVSQRPSGVPDRFSGSKSGNTASLTVSGLQAEDEADYYCSSYAGSNIGVFGGGTTLTVL
B10: C556 (antibody, V domains shown)
VH: QVQLVQSGAEVKKPGASVKVSCKASGYTFTYYYMHWVRQAPGQGLEWMGIINPSGGSTSYAQKFQGRVTMTRDTSTSTVYMELSSLRSEDTAVYYCARPLLPGETGSLNRLDYWGQGTLVTVSS
VL: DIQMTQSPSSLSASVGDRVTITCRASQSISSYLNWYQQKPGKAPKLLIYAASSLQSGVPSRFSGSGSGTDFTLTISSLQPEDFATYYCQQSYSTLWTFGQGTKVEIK
B11: BD55-4325 (antibody, V domains shown)
VH: QAQLVQSGAEVKKPGASVKVSCEAIGYAFKTYGISWVRQAPGQGLEWVGWISGHDGTTNYAQKFQGRVTLTTDTSTNTAFLEVKSLRSDDTAVFYCARDKAYSGYDYWSTIFDYWGQGTLVTVST
VL: SYVLTQPPSVSVAPGKTATITCGGNNIRSKSVQWFQQRPGQAPILVLYYDTDRPSGIPERFSGSNSGNTATLTISRVEAGDEADYYCQVWDSTTDHYLFGTGTKVTVL
B12: BD55-1831 (antibody, V domains shown)
VH: QVQLQESGPGLVKPSQTLSLTCTVSGGSISNGDYYWSWIRQPPGKGLEWIGYIHNSGSTYKKLSLRSRLTISVDTSKNQFSLKLSSVTAADTAVYYCARTASPSGAWYFDFWGRGTLVTVSS
VL: SYVLTQPPSVSVAPGQTARITCGGNDIGSKNVHWYQQKPGQAPLLVVYDDTDRPSGIPERFSGSNSGNPATLTISRVEAGDEADYYCQVWDSSFDHVIFGGGTKLTVL
B13: DH1044 (antibody, V domains shown)
VH: QVQLVESGGGVVQPGRSLRLSCAASGFTFSSYGMHWVRQAPGKGLEWVAVISFDGSNKYYVDSVKGRFTISRDNSKNTLYLQMNSLRAEDTAVYYCAKDMHNDYGDYVSYYFYYGMDVWGQGTTVTVSS
VL: QSVLTQPPSVSAAPGQKVIISCSGSSSNIGNNYVSWYQQLPGTAPKLLIYENNKRPSGIPDRFSGSKSGTSATLGITGLQTGDEADYYCGTWDSSLRTDVFGGGTKLIVL
B14: BD-914 (antibody, V domains shown)
VH: QVQLVQSGAEVTKPGSSVKVSCKTSGDTFSLYPISWVRQAPGQGLEWMGRIIPIVGIADYAQKFQGRVTITADKSTSTAYMELSSLRSEDTAIYYCARDGNQYYYDSGGDYYVNYWGQGTLITVSS
VL: DIQMTQSPSSLSASVGDRVTITCQASQDIRKDLNWYRQRPGKAPKLLIYDASNLETGVPSRFSGSGSGTHFTFTISGLQPEDVATYYCQQYDNVPVTFGPGTKVDIR
B15: BD55-1104 (antibody, V domains shown)
VH: EVQLVQSGAEVKKPGESLKISCKGSGYSFTTYWTGWVRQVPGKGLEWMGLIYPRDSDARYTPSFEGHVTISADNSINTAYLHWSSLKASDTAIYYCVSAGDTGWRGHADYWGQGTLVTVSS
VL: DIQMTQSPSSLSASVGDRVTITCRASLDIRNYLVWFQQKPGTAPKSLIYEASTLQSGVPSRFSGSGSGTDFTLTISSLRPEDFATYYCQQYNTWPFTFGGGTKVEIK
B16: BD-923 (antibody, V domains shown)
VH: EVLLVESGGGLVQPGRSLRLSCTASGFTFEDYAMHWVRQAPGKGLEWVSGMSWNSGTIGYADSVRGRFIISRDNAKNSLYLQMNSLRAEDTALYYCGKDRGFGESLYYVMDVWGQGATVTVSS
VL: QSALTQPASVSGSPGQSITISCTGTSSDVGVYNYVSWYQQHPGKAPKLMIYNVSDRPSGVSNRFSGSKSGNTASLTISGLQAEDEADYYCSSYTSSSIVIFGGGTKLTVL
B17: C581 (antibody, V domains shown)
VH: EVQLVQSGAEVKKPGESLKISCKGSGYRFTSYWIAWVRQMPGKGLEWMGIIYPGDSDTRYSPSFQGQVTISADQSISTAYLQWSSLKASDTAMYYCARGGPPGGVKLELTDYWGQGALVTVSS
VL: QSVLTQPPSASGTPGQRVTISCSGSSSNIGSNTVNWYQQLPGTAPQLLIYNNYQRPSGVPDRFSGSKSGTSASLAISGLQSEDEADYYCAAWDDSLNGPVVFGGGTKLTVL
B18: BD55-1294 (antibody, V domains shown)
VH: QLHLQESGPGLVKPSETLSLTCTVSGGSIFSSTYYWGWIRQTPGKGLEWIGSFYNGGSTYYNPSLESRVTISEDTSKNQFSLKLSSVTAADTAVYYCARDLSETASYHNWFDPWGQGTLVTVSS
VL: DIQLTQSPSFLSASVGDRITITCRASQAISNYLAWYQQKPGKAPKLLIYGASTLHSGVPSRFSGSHSGSEFTLTISGLQPEDFATYYCQQLNSFGPGTKVDIK
B19: BD-796 (antibody, V domains shown)
VH: QVQLVQSGAEVKKPGSSVKVSCKASGGTFSSYAINWMRQAPGQGLEWMGGIIPILGIPNSAQKFQGRVTITADKSTSTAYMELSSLRSEDTAVYYCARMYNYDSSGLEADAFDIWGQGTMVTVSS
VL: QSVLTQPPSVSGAPGQRVTISCTGSSSNIGAGYDVHWYQQLPGTAPKLLIYGNSNRPSGVPDRFSGSKSGTSASLAITGLQAEDEADYYCQSYDSSLSGVVFGGGTKLTVL
B20: BD-913 (antibody, V domains shown)
VH: QVQLVQSGAEVKKPGSSVKVSCKASGGTFSTYAISWVRQAPGQGLEWMGGIIPIVGIANDAQKFQGRVTITADKSTSTAYMELSSLRSEDTAVFYCARAQRKQWPVEDAYDIWGQGTMVTVSS
VL: B19 VL with V100S, L108V
B21: BD-744 (antibody, V domains shown)
VH: EVQLVESGGGLVQPGRSLRLSCAASGFTFDDYAMHWVRQAPGKGLEWVSGASWNSGTIGYADSVKGRFIIIRDNAKNSLYLQMNSLRSEDTASYYCAKDFSRDGDAFDIWGQGTMVTVSS
VL: SYVLPQPPSVSVAPGKTARITCGGNNIEHKSVHWYQQKPRQAPVVVMYYDSDRPSGIPERFSGSNSGNTATLIISRVEAGDEAEYYCQVWDRSSDQPVFGGGTKLTVL
B22: BD-907 (antibody, V domains shown)
VH: QVQLVQSGSELKKPGASVKVSCKASGYTFSSYYLNWVRQAPGQGLEWMGWIDTNTGNPTYAQAFTGRFVFSLDTSVSTAYLQIGSLQANDTAVYYCAREGGGWSGLYYYFGMDVWGQGTTVTVSS
VL: EIVLTQSPGTLSLSPGERATVSCRASQSIGSNYLAWYQQKPGQAPRLLIYGASSRATGIPDRFSGSGSGTDFTLTISRLEPEDFAVYYCQQYGSSPPYTFGQGTKLEIK
B23: BD-932 (antibody, V domains shown)
VH: EVQLVESGGALVHPGRSLRLSCTASGFTFEDYAMHWVRQAPGKGLEWVSGVSWNSGTIGYADSVKGRFIISRDNAKNSLYLQMLSLRVEDTAFYYCAKHGGLLDTSLDQYYFDYWGQGTLVTVSS
VL: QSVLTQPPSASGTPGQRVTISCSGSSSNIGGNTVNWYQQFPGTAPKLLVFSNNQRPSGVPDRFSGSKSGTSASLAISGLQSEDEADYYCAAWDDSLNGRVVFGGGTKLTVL

molecular target: SARS-CoV-2 Omicron (B.1.1.529) RBD (SARS-CoV-2 Omicron B.1.1.529 (BA.1), strain)

Row | Binder | binding result
1 | B1 | binds
2 | B2 | binds
3 | B3 | binds
4 | B4 | binds
5 | B5 | binds
6 | B6 | binds
7 | B7 | binds
8 | B8 | binds
9 | B9 | binds
10 | B10 | binds
11 | B11 | binds
12 | B12 | binds
13 | B13 | binds
14 | B14 | binds
15 | B15 | binds
16 | B16 | binds
17 | B17 | binds
18 | B18 | binds
19 | B19 | binds
20 | B20 | binds
21 | B21 | binds
22 | B22 | binds
23 | B23 | binds
